Test results: KR20240052776A (dated 2024)
Residue numbers refer to the chain shown, from its start.

How the values were obtained:
Test in all cases: flow cytometry, cell-based binding assay: yeast-displayed scFv with biotinylated MOG protein, streptavidin detection, anti-myc co-staining
[1] = molecular target: T1, biotinylated human MOG-His (Uniprot Q16653), RND Systems (human, UniProt Q16653 30-154, biotinylated (site not stated))
T1 construct: A bought protein (RND Systems); also called 인간 MOG-His; not shown: His tag
T1 sequence (looked up): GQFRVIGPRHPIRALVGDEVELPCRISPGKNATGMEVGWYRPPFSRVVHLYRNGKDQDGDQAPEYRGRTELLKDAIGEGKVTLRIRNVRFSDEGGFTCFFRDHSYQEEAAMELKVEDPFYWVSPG

[2] = molecular target: T2, biotinylated cynomolgus monkey MOG-FC protein (Q9BGS7), expressed in mammalian cells (cynomolgus monkey, UniProt Q9BGS7 30-154, limits assumed, biotinylated (site not stated))
T2 construct: also called cynomolgus MOG-Fc; 사이노몰거스 원숭이 MOG-FC; not shown: Fc part
T2 sequence (looked up): T1 sequence (looked up) with H10Q, K55R, D60E, M111I, G125A

[3] = molecular target: T3, biotinylated mouse MOG-His (Uniprot Q61885), RND Systems (mouse, UniProt Q61885 29-156, limits assumed, biotinylated (site not stated))
T3 construct: A bought protein (RND Systems); also called 마우스 MOG-His; not shown: His tag
T3 sequence (looked up): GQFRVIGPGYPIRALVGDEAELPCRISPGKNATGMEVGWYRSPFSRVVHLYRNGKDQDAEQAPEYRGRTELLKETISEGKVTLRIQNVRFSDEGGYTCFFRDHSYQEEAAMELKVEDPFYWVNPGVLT

Measured: binding result

B1: anti-MOG scFv of the invention, displayed on yeast cells (MOG-CAR 발현 효모 세포) (scFv, V domains shown)
VH: QVQLVQSGAEVKKPGSSVKVSCKASGGTFSSYAFSWVRQAPGQGLEWMGRIVPVVGTPNYAQKFQGRVTITADESTSTAYMELSSLRSEDTAVYYCARERLYAGYYFDHWGQGTLVTVSS
VL: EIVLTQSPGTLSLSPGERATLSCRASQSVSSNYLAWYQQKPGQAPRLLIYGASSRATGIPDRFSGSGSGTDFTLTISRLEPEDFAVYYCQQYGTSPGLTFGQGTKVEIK
notes: also called MOG-CAR expressing yeast cells
binds: all assays above
